Measurements reported in US20220396635A1 (UNIVERSIT T STUTTGART, published 2022).

B1: scDb/Fab-Fc (2-1)+1, trivalent bispecific anti-EGFRxanti-CD3 (bispecific antibody)
chain: QVQLVQSGAEVKKPGSSVKVSCKASGGTFSGYTMNWVRQAPGQGLEWMGLINPYKGVSTYNGKFKDRVTITADKSTSTAYMELSSLRSEDTAVYYCARSGYYGDSDWYFDVWGQGTLVTVSSGGGGSDIQLTQSPSFLSASVGDRVTITCRASQSIGTNIHWYQQKPGKAPKLLIKYASESISGVPSRFSGSGSGTEFTLTISSLQPEDFATYYCQQNNNWPTTFGAGTKLEIKRGGGGSGGGGSGGGGSEVQLVESGGGLVQPGGSLRLSCAASGFSLTNYGVHWVRQAPGKGLEWLGVIWSGGNTDYNTPFTSRFTISRDNSKNTLYLQMNSLRAEDTAVYYCARALTYYDYEFAYWGQGTTVTVSSGGGGSDIQMTQSPSSLSASVGDRVTITCRASQDIRNYLNWYQQKPGKAPKLLIYYTSRLHSGVPSRFSGSGSGTDFTFTISSLQPEDIATYYCQQGNTLPWTFGQGTKLEIKRAAADKTHTCPPCPAPPVAGPSVFLFPPKPKDTLMISRTPEVTCVVVDVSHEDPEVKFNWYVDGVEVHNAKTKPREEQYNSTYRVVSVLTVLHQDWLNGKEYKCKVSNKGLPSSIEKTISKAKGQPREPQVCTLPPSRDELTKNQVSLSCAVKGFYPSDIAVEWESNGQPENNYKTTPPVLDSDGSFFLVSKLTVDKSRWQQGNVFSCSVMHEALHNHYTQKSLSLSPGK
heavy: EVQLVESGGGLVQPGGSLRLSCAASGFSLTNYGVHWVRQAPGKGLEWLGVIWSGGNTDYNTPFTSRFTISRDNSKNTLYLQMNSLRAEDTAVYYCARALTYYDYEFAYWGQGTTVTVSSASTKGPSVFPLAPSSKSTSGGTAALGCLVKDYFPEPVTVSWNSGALTSGVHTFPAVLQSSGLYSLSSVVTVPSSSLGTQTYICNVNHKPSNTKVDKKVEPKSCGTDKTHTCPPCPAPPVAGPSVFLFPPKPKDTLMISRTPEVTCVVVDVSHEDPEVKFNWYVDGVEVHNAKTKPREEQYNSTYRVVSVLTVLHQDWLNGKEYKCKVSNKGLPSSIEKTISKAKGQPREPQVYTLPPCRDELTKNQVSLWCLVKGFYPSDIAVEWESNGQPENNYKTTPPVLDSDGSFFLYSKLTVDKSRWQQGNVFSCSVMHEALHNHYTQKSLSLSPGK
light: DIQLTQSPSFLSASVGDRVTITCRASQSIGTNIHWYQQKPGKAPKLLIKYASESISGVPSRFSGSGSGTEFTLTISSLQPEDFATYYCQQNNNWPTTFGAGTKLEIKRTVAAPSVFIFPPSDEQLKSGTASVVCLLNNFYPREAKVQWKVDNALQSGNSQESVTEQDSKDSTYSLSSTLTLSKADYEKHKVYACEVTHQGLSSPVTKSFNRGEC
notes: also called scDbhuU3xhu225-Fc(hole)Δab + Fdhu225-Fc(knob)Δab + VLhu225-CLκ
B2: scDb/scFv-Fc (1-2)+1, trivalent bispecific anti-EGFRxanti-CD3 (bispecific antibody)
chain 1: EVQLVESGGGLVQPGGSLRLSCAASGFSLTNYGVHWVRQAPGKGLEWLGVIWSGGNTDYNTPFTSRFTISRDNSKNTLYLQMNSLRAEDTAVYYCARALTYYDYEFAYWGQGTTVTVSSGGGGSDIQMTQSPSSLSASVGDRVTITCRASQDIRNYLNWYQQKPGKAPKLLIYYTSRLHSGVPSRFSGSGSGTDFTFTISSLQPEDIATYYCQQGNTLPWTFGQGTKLEIKRGGGGSGGGGSGGGGSQVQLVQSGAEVKKPGSSVKVSCKASGGTFSGYTMNWVRQAPGQGLEWMGLINPYKGVSTYNGKFKDRVTITADKSTSTAYMELSSLRSEDTAVYYCARSGYYGDSDWYFDVWGQGTLVTVSSGGGGSDIQLTQSPSFLSASVGDRVTITCRASQSIGTNIHWYQQKPGKAPKLLIKYASESISGVPSRFSGSGSGTEFTLTISSLQPEDFATYYCQQNNNWPTTFGAGTKLEIKRAAADKTHTCPPCPAPPVAGPSVFLFPPKPKDTLMISRTPEVTCVVVDVSHEDPEVKFNWYVDGVEVHNAKTKPREEQYNSTYRVVSVLTVLHQDWLNGKEYKCKVSNKGLPSSIEKTISKAKGQPREPQVCTLPPSRDELTKNQVSLSCAVKGFYPSDIAVEWESNGQPENNYKTTPPVLDSDGSFFLVSKLTVDKSRWQQGNVFSCSVMHEALHNHYTQKSLSLSPGK
chain 2: EVQLVESGGGLVQPGGSLRLSCAASGFSLTNYGVHWVRQAPGKGLEWLGVIWSGGNTDYNTPFTSRFTISRDNSKNTLYLQMNSLRAEDTAVYYCARALTYYDYEFAYWGQGTTVTVSSGGGGSGGGGSGGGGSDIQLTQSPSFLSASVGDRVTITCRASQSIGTNIHWYQQKPGKAPKLLIKYASESISGVPSRFSGSGSGTEFTLTISSLQPEDFATYYCQQNNNWPTTFGAGTKLEIKRAAADKTHTCPPCPAPPVAGPSVFLFPPKPKDTLMISRTPEVTCVVVDVSHEDPEVKFNWYVDGVEVHNAKTKPREEQYNSTYRVVSVLTVLHQDWLNGKEYKCKVSNKGLPSSIEKTISKAKGQPREPQVYTLPPCRDELTKNQVSLWCLVKGFYPSDIAVEWESNGQPENNYKTTPPVLDSDGSFFLYSKLTVDKSRWQQGNVFSCSVMHEALHNHYTQKSLSLSPGK
notes: also called scDbhu225xhuU3-Fc(hole)Δab + scFvhu225-Fc(knob)Δab
B3: scDb/Fab-Fc (1-2)+1, trivalent bispecific anti-EGFRxanti-CD3 (bispecific antibody)
chain: B2 chain 1
heavy: B1 heavy
light: B1 light
notes: also called scDbhu225xhuU3-Fc(hole)Δab + Fdhu225-Fc(knob)Δab + VLhu225-CLκ
B4: scDb/scFv-Fc (2-1)+1, trivalent bispecific anti-EGFRxanti-CD3 (bispecific antibody)
chain 1: B1 chain
chain 2: B2 chain 2
notes: also called scDbhuU3xhu225-Fc(hole)Δab + scFvhu225-Fc(knob)Δab

What was measured:
EGFR [1] = target: T1, EGFR (UniProt P00533 25-1210, limits assumed); experiment: flow cytometry, serial dilution on SKBR-3 cells (EGFR-expressing), PE anti-human Fc detection
T1 construct: whole, on cells; the cell lines are human tumor lines
Procedure: (§1) Binding analysis of the trivalent, bispecific antibodies was performed by flow cytometry using tumor cell lines with different EGFR-expression levels (FIG. 20) (Table 12). Adherent cells were washed with PBS and shortly trypsinized at 37° C. Trypsin was quenched with FCS-containing medium and removed by centrifugation (500×g, 5 min.). Target cells (FaDu, LIM1215, SKBR-3, T-47-D, MCF-7 and Jurkat cells) at 1×10⁵ cells/well were incubated with a serial dilution of trivalent, bispecific antibodies for 1 h at 4° C. After removing excess of recombinant protein by washing with PBA (PBS, 2% FBS, and 0.02% sodium azide), bound protein was detected using PE-conjugated anti-human Fc mAb (Jackson ImmunoResearch Laboratories Inc). Fluorescence was measured using MACSquant VYB (Miltenyi Biotec) and data were analyzed using FlowJo (Tree Star). Relative median fluorescence intensities (MFI) were calculated as followed: relative MFI=((MFIₛₐₘₚₗₑ-(MFIdetection-MFIcells))/MFIcells).

CD3 = target: T2, CD3 (UniProt P07766 23-207); experiment: flow cytometry, serial dilution on Jurkat cells (CD3-expressing), PE anti-human Fc detection
T2 construct: whole, on cells; on cells it stands in the TCR/CD3 complex; also called CD3 on Jurkat cells
Procedure: as §1

EGFR [2] = target: T1, EGFR; experiment: flow cytometry, serial dilution on FaDu cells (EGFR-expressing), PE anti-human Fc detection
Procedure: as §1

EGFR [3] = target: T1, EGFR; experiment: flow cytometry, serial dilution on MCF-7 cells (EGFR-expressing), PE anti-human Fc detection
Procedure: as §1

EGFR [4] = target: T1, EGFR; experiment: flow cytometry, serial dilution on LIM1215 cells (EGFR-expressing), PE anti-human Fc detection
Procedure: as §1

EGFR [5] = target: T1, EGFR; experiment: cell-based or functional assay
EGFR [6] = target: T1, EGFR; experiment: flow cytometry, serial dilution on T-47-D cells (EGFR-expressing), PE anti-human Fc detection
Procedure: as §1

Row | Binder | EC50 (EGFR [1]) [nM] | EC50 (CD3) [nM] | EC50 (EGFR [2]) [nM] | EC50 (EGFR [3]) [nM] | EC50 (EGFR [4]) [nM] | EC50 of PBMC cytotoxicity on FaDu cells, E:T 5:1 (EGFR [5]) [nM] | EC50 of PBMC cytotoxicity on SKBR-3 cells, E:T 5:1 (EGFR [5]) [nM] | EC50 (EGFR [6]) [nM]
1 | B1 | 0.1 | 1.4 | 0.2 | 0.03 | 0.2 | 0.056 | 0.209 | 0.03
2 | B2 | 0.09 | 9.6 | 1.1 | 0.03 | 0.2 | 0.026 | 0.126 | 0.02
3 | B3 | 0.1 | 1 | 0.2 | 0.04 | 0.2 | 0.05 | 0.209 | 0.03
4 | B4 | 0.1 | 16.3 | 0.7 | 0.1 | 0.2 | 0.027 | 0.277 | 0.1
